Assay results taken from article doi:10.1101/2024.03.31.587457, “The TTLL10 polyglycylase is stimulated by tubulin glutamylation and inhibited by polyglycylation” (bioRxiv, 2025).

T1: TTLL8 (Homo sapiens, UniProt A6PVC2)
T1 construct: residues 39-585; N-terminal GST tag cut with 3C protease; Sf9 baculovirus
T1 sequence (A6PVC2 39-585): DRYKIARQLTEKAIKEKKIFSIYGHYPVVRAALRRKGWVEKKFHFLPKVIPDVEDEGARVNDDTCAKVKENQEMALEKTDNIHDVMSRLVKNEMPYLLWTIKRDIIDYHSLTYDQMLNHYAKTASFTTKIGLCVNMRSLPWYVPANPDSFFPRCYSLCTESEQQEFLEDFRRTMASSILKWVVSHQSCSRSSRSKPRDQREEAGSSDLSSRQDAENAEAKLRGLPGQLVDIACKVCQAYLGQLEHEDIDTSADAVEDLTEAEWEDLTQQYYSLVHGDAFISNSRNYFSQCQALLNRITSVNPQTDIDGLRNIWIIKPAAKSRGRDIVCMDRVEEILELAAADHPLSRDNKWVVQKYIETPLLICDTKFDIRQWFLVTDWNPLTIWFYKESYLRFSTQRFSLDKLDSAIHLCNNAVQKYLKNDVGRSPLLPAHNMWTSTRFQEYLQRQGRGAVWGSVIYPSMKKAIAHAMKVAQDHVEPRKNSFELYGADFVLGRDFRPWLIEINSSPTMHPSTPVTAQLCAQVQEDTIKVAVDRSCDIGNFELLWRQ

T2: TTLL10 (Xenopus tropicalis, UniProt A0A8J0T4S7)
T2 construct: residues 105-570; N-terminal GST tag cut with 3C protease; Sf9 baculovirus; untagged for mass spectrometry (C-terminal SNAP fusion only for microscopy)
T2 sequence (A0A8J0T4S7 105-570): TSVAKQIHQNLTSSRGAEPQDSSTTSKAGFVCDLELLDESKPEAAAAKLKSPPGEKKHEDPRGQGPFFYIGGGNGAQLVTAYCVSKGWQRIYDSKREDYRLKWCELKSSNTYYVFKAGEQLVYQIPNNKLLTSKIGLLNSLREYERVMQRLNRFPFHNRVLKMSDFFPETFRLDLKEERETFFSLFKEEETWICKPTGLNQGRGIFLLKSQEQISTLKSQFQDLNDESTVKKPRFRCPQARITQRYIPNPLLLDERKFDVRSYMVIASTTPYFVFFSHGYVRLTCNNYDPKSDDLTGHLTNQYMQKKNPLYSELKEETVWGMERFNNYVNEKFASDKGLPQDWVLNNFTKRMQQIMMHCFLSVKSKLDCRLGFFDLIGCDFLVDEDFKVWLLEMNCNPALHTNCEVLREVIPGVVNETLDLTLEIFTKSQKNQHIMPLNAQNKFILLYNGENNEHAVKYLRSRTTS

B1: Alexa647-labeled TTLL10-SNAP (enzyme)
chain: T2 sequence (A0A8J0T4S7 105-570)
modifications: SNAP-Surface Alexa Fluor 647 dye conjugated to the SNAP tag

Key:
TTLL8 = target: T1, TTLL8; test: LC-MS and MS/MS of glycine added to tubulin tails; format: biochemical; details: labelled compound (13C glycine); co-substrate unmodified human microtubules (taxol-stabilised); ATP-dependent; room temperature, 20 min
TTLL10 = target: T2, TTLL10; test: LC-MS and MS/MS of glycine added to tubulin tails; format: biochemical; details: labelled compound (13C glycine); co-substrate human microtubules monoglycylated by TTLL8; ATP-dependent; room temperature, 20 min
[1] = target: monoglycylated microtubules (α + 1.7G, β + 2.0G) (human) (UniProt P68363); test: TIRF microscopy microtubule binding assay; binding curve of TTLL10-SNAP(Alexa647) on microtubules immobilised in neutravidin-coated flow chambers; apparent Kd
[2] = target: monoglycylated/polyglutamylated microtubules (<nG>α ~ 0.1, <nG>β ~ 0.8; <nE>α ~ 18, <nE>β ~ 4) (human) (UniProt P68363); test: TIRF microscopy microtubule binding assay; 500 nM TTLL10-SNAP(647) perfused over biotinylated taxol-stabilised microtubules immobilised on neutravidin; binding buffer 60mM KCl, 10mM NaCl, 40mM PIPES pH 6.8, 2mM Tris pH 8.0, 1.5mM MgCl2, 1mM ATP; peak line-scan intensities normalised to microtubule length and to unmodified microtubules in the same chamber
[3] = target: monoglycylated microtubules (<nG>α ~ 1.1, <nG>β ~ 2.5) (human) (UniProt P68363); test: as above
[4] = target: polyglycylated/polyglutamylated microtubules (<nG>α ~ 0.4, <nG>β ~ 1.9, glutamylated by TTLL6) (human) (UniProt P68363); test: as above
[5] = target: monoglycylated microtubules (<nG>α ~ 0.8, <nG>β ~ 1.2) (human) (UniProt P68363); test: as above

Molecule | LC-MS and MS/MS of glycine added to tubulin tails (TTLL8) | LC-MS and MS/MS of glycine added to tubulin tails (TTLL10) | Kd [1] | fold recruitment against the same monoglycylated microtubules without glutamylation [2] | percent increase in recruitment on addition of more monoglycines (against microtubules with <nG>α ~ 0.8, <nG>β ~ 1.2) [3] | fold binding against the same polyglycylated microtubules without glutamylation [4] | fold recruitment against unmodified microtubules [5]
NCC(=O)O [glycine] | TTLL8 adds glycines to unmodified microtubules on both α- and β-tubulin | TTLL10 can add glycines to both α- and β-tubulin as long as they were previously monoglycylated |  |  |  |  | 
B1 |  |  | 600 nM | 1.8 fold | 17% | 3.2 fold | > 6 fold
